Data: publication PMC12751073

Assays:
[1] = biological target: FLAG-tagged full-length human CHK2, wildtype (immunoprecipitated) (human) (UniProt O96017)
[2] = biological target: FLAG-tagged full-length human CHK2, wildtype (immunoprecipitated) (human) (UniProt O96017); remark: listed apart in the source
[3] = biological target: FLAG-tagged full-length human CHK2 K245A (immunoprecipitated) (human) (UniProt O96017)

- radiometric kinase assay (CHKtide, [^32P]-γ-ATP) of immunoprecipitated full-length CHK2 with or without CaCl2 and CaM [1]: 10 fold
- IC50 of CaM (0-200 μM) for the kinase activity of immunoprecipitated full-length CHK2, radiometric assay, 1 mM CaCl2 [2]: 8.09 µM
- fold decrease in radiometric kinase assay of immunoprecipitated full-length CHK2 mutant with or without CaCl2 and CaM [3]: 10 fold
Substance: Calmodulin (recombinant, produced in-house) (from UniProt P0DP23 1-149) (natural protein)
